Laboratory results as given in patent US20080280358A1 (University of California, published 2008).

Molecular target: Purified rabbit muscle actin (Cytoskeleton Inc.) (rabbit, UniProt P68135 3-377)
Experiment: cell-based or functional assay

| bundling activity at molar ratio 10:1 and 100:1 | bundling activity at molar ratio peptide:actin = 1:1 | effective peptide to actin ratio for bundling | bundling activity at 1:1 molar ratio to actin | bundling when the peptide is present during polymerization | molar ratio of peptide to actin giving half-bundled and half-F-actin (co-polymerization, centrifugation, SDS-PAGE) | molar ratio of peptide:actin to bundle all the F-actin during polymerization | bundling activity at molar ratio 100:1 | bundling activity at molar ratio to actin of 10 and 50 | Binder |
| --- | --- | --- | --- | --- | --- | --- | --- | --- | --- |
| 10 molar ratio peptide:actin | 1 molar ratio peptide:actin | ~16 molar ratio peptide:actin |  |  |  |  |  |  | GIVRKAISRFEVAPYL [SS15 less active synthetic peptide] |
|  | 1 molar ratio peptide:actin | 1 molar ratio peptide:actin | 1 molar ratio peptide:actin | 2 molar ratio peptide:actin | 0.5 molar ratio peptide:actin | 1 molar ratio peptide:actin |  |  | GIVRKWISRFEVWPYLKK [SS2 active peptide (SuSy 377-392)] |
|  | 1 molar ratio peptide:actin | 1 molar ratio peptide:actin | 1 molar ratio peptide:actin |  |  |  | 100 molar ratio peptide:actin | 50 molar ratio peptide:actin | GIVRKWISRFEVWPYL [SS12 active synthetic peptide] |
